Experimental data: paper PMC2808448 (Biochemistry, 2010)

Assays:
Sco3058 [1] = biological target: T1, Sco3058 (Streptomyces coelicolor, UniProt Q93J45); test: ninhydrin-based dipeptidase assay, L-Leu-D-Ala substrate; type: biochemical
T1 sequence (Q93J45 1-400): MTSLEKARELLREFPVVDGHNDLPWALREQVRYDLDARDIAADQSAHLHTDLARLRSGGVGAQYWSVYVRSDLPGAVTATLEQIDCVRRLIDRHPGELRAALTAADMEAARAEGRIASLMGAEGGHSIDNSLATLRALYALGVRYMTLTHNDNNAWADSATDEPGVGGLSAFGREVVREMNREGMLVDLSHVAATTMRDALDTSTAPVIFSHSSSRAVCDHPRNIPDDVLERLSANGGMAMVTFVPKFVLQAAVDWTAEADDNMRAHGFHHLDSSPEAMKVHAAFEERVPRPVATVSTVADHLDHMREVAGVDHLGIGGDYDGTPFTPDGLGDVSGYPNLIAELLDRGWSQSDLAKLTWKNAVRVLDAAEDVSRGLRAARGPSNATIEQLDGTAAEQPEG

Sco3058 [2] = biological target: T1, Sco3058; test: crystal structure at […] Å; type: biochemical
purified protein = substrate: CC(C)C[C@@H](NC(=O)[C@@H](N)Cc1ccc(O)cc1)C(=O)O; test: purified protein; details: […] Zn2+
[3] = substrate: CC(C)C[C@H](N)C(=O)N[C@H](C)C(=O)O; test: steady-state kinetics of hydrolysis by purified enzyme; type: biochemical, Streptomyces coelicolor; details: […] Zn2+
[4] = substrate: CC(C)C[C@H](N)C(=O)N[C@H](CCC(=O)O)C(=O)O; test: as above; type: biochemical, Streptomyces coelicolor; details: […] Zn2+
[5] = substrate: CSCC[C@H](N)C(=O)N[C@H](CC(C)C)C(=O)O; test: as above; type: biochemical, Streptomyces coelicolor; details: […] Zn2+
[6] = substrate: CSCC[C@H](N)C(=O)N[C@H](CCC(=O)O)C(=O)O; test: as above; type: biochemical, Streptomyces coelicolor; details: […] Zn2+
[7] = substrate: N=C(N)NCCC[C@H](N)C(=O)N[C@H](CC(=O)O)C(=O)O; test: as above; type: biochemical, Streptomyces coelicolor; details: […] Zn2+

NC(Cc1ccccc1)P(=O)(O)CC(CC(=O)O)C(=O)O (racemic) [compound 2, phosphinate pseudodipeptide mimic of Phe-Asp] showed a Ki (Sco3058 [1]) of 2.3 ± 0.3 µM.

Molecule NC(Cc1ccc(O)cc1)P(=O)(O)CC(CC(=O)O)C(=O)O (racemic) [compound 3, phosphinate pseudodipeptide mimic of Tyr-Asp] has a Ki (Sco3058 [1]) of 1.1 ± 0.2 µM.

O=C(O)CC(O)(CC(=O)O)C(=O)O [citrate] showed a Ki (Sco3058 [2]) of 25000 ± 15000 µM.

B1: Sco3058 (Streptomyces coelicolor A3(2)) (protein)
chain: MTSLEKARELLREFPVVDGHNDLPWALREQVRYDLDARDIAADQSAHLHTDLARLRSGGVGAQYWSVYVRSDLPGAVTATLEQIDCVRRLIDRHPGELRAALTAADMEAARAEGRIASLMGAEGGHSIDNSLATLRALYALGVRYMTLTHNDNNAWADSATDEPGVGGLSAFGREVVREMNREGMLVDLSHVAATTMRDALDTSTAPVIFSHSSSRAVCDHPRNIPDDVLERLSANGGMAMVTFVPKFVLQAAVDWTAEADDNMRAHGFHHLDSSPEAMKVHAAFEERVPRPVATVSTVADHLDHMREVAGVDHLGIGGDYDGTPFTPDGLGDVSGYPNLIAELLDRGWSQSDLAKLTWKNAVRVLDAAEDVSRGLRAARGPSNATIEQLDGTAAEQPEG
B1 was tested, and the Km (purified protein) was 170 ± 10 µM, the kcat (purified protein) was 24 s⁻¹ and the kcat/Km (purified protein) was 150000 M⁻¹ s⁻¹. It also gave a Km [3] of 750 ± 40 µM, a kcat [3] of 160 ± 3 s⁻¹ and a kcat/Km [3] of 210000 ± 10000 M⁻¹ s⁻¹. The Km [4] was 550 ± 30 µM, the kcat [4] was 135 ± 2 s⁻¹ and the kcat/Km [4] was 250000 ± 10000 M⁻¹ s⁻¹. It also gave a Km [5] of 560 ± 30 µM, a kcat [5] of 194 ± 4 s⁻¹ and a kcat/Km [5] of 350000 ± 30000 M⁻¹ s⁻¹. The Km [6] was 890 ± 40 µM, the kcat [6] was 340 ± 4 s⁻¹ and the kcat/Km [6] was 380000 ± 20000 M⁻¹ s⁻¹. For the same molecule, the Km [7] was 140 ± 20 µM, the kcat [7] was 107 ± 3.2 s⁻¹ and the kcat/Km [7] was 760000 ± 90000 M⁻¹ s⁻¹.
